“Also recorded” adds a separate entry of the source.
B1: PEDF: Recombinant human pigment epithelium-derived factor, 418-amino acid 50-kDa glycoprotein, produced in 293 cells (SEQ ID NO: 1) (protein, listed as Homo sapiens)
chain: MQALVLLLCIGALLGHSSCQNPASPPEEGSPDPDSTGALVEEEDPFFKVPVNKLAAAVSNFGYDLYRVRSSMSPTTNVLLSPLSVATALSALSLGAEQRTESIIHRALYYDLISSPDIHGTYKELLDTVTAPQKNLKSASRIVFEKKLRIKSSFVAPLEKSYGTRPRVLTGNPRLDLQEINNWVQAQMKGKLARSTKEIPDELSLLLLGVAHFKGQWVTKFDSRKTSLEDFYLDEERTVRVPMMSDPKAVLRYGLDSDLSCKIAQLPLTGSMSLIFFLPLKVTQNLTLIEESLTSEFIHDIDRELKTVQAVLTVPKLKLSYEGEVTKSLQEMKLQSLFDSPDFSKITGKPIKLTQVEHRAGFEWNEDGAGTTPSPGLQPAHLTFPLDYHLNQPFIFVLRDTDTGALLFIGKILDPRGP
modifications: glycosylated
B2: HSP47: heat shock protein 47, collagen-specific chaperone protein from the serpin family, control protein (protein, UniProt P50454 19-418, looked up)
Serpin H1: AEVKKPAAAAAPGTAEKLSPKAATLAERSAGLAFSLYQAMAKDQAVENILVSPVVVASSLGLVSLGGKATTASQAKAVLSAEQLRDEEVHAGLGELLRSLSNSTARNVTWKLGSRLYGPSSVSFADDFVRSSKQHYNCEHSKINFRDKRSALQSINEWAAQTTDGKLPEVTKDVERTDGALLVNAMFFKPHWDEKFHHKMVDNRGFMVTRSYTVGVMMMHRTGLYNYYDDEKEKLQIVEMPLAHKLSSLIILMPHHVEPLERLEKLLTKEQLKIWMGKMQKKAVAISLPKGVVEVTHDLQKHLAGLGLTEAIDKNKADLSRMSGKKDLYLASVFHATAFELDTDGNPFDQDIYGREELRSPKLFYADHPFIFLVRDTQSGSLLFIGRLVRPKGDKMRDEL
B3: ACT: α1-antichymotrypsin, a classical serpin used as control protein (protein, UniProt P01011 24-423, looked up)
Alpha-1-antichymotrypsin: HPNSPLDEENLTQENQDRGTHVDLGLASANVDFAFSLYKQLVLKAPDKNVIFSPLSISTALAFLSLGAHNTTLTEILKGLKFNLTETSEAEIHQSFQHLLRTLNQSSDELQLSMGNAMFVKEQLSLLDRFTEDAKRLYGSEAFATDFQDSAAAKKLINDYVKNGTRGKITDLIKDLDSQTMMVLVNYIFFKAKWEMPFDPQDTHQSRFYLSKKKWVMVPMMSLHHLTIPYFRDEELSCTVVELKYTGNASALFILPDQDKMEEVEAMLLPETLKRWRDSLEFREIGELYLPKFSISRDYNLNDILLQLGIEEAFTSKADLSGITGARNLAVSQVVHKAVLDVFEEGTEASAATAVKITLLSALVETRTIVRFNRPFLMIIVPTDTQNIFFMSKVTNPKQA

What was measured:
[1] = test system: VEGF164-stimulated bovine retinal capillary endothelial cell migration; conditions: read-out: IC50, inhibition of VEGF-stimulated endothelial cell migration; BRCEC, VEGF164-stimulated, 8 hours at 37° C.
Description: BRCEC migration assay. Bovine retinal capillary endothelial cells (BRCEC) were isolated and cultured as described 45. […] Cells, between the fifth and ninth passage, were starved overnight in MEM with D-Val and 2% fetal bovine serum. Polycarbonate filters (10 μm pore-size, PVPF; Osmonics Inc., Minnetonka, Minn.) were coated with 100 μg/ml collagen. Quadruplicates with test samples in MEM D-Val (28 μl), and 10^4 cells in MEM D-Val (50 μl) were placed in the lower and upper wells, respectively, of the microchemotaxis chamber (NeuroProbe, Gaithersburg, Md.). After incubating 8 hours at 37° C., the non-migrated cells on the upper surface of the filter were removed, and the filters were stained with Harris' hematoxylin. For each of the test samples, one 400× field per quadrant of each of the quadruplicates was counted. From the total cell number in the 4 fields, the mean and standard error of the quadruplicate wells were calculated. Baseline migration equaled the number of migrated cells with MEM D-Val without any added proteins or peptides. The difference between baseline and the number of migrated cells with VEGF added equals maximal total migration.

[2] = test system: VEGF-induced retinal vascular permeability; experiment: Evans blue assay after intravitreal co-injection with VEGF164; assay type: in vivo, mouse (C57BL/6J); conditions: mouse eye, co-injected intravitreally with VEGF164 at 20-fold molar excess; for inhibition of VEGF-induced retinal vascular permeability (Evans blue-albumin): 24 h, VEGF-induced increase = 100%, mean ±SE
Description: (§1) Intravitreal injection to assess bioactivity on vascular permeability. C57BL/6J mice, 6-8 weeks of age, were cared for in accordance with the Association for Research in Vision and Opthalmology Statement for the Use of Animals in Ophthalmic and Vision Research. For anesthesia, each received intramuscularly 20 mg/kg ketamine, 20 mg/kg xylazine and 800 mg/kg urethane in 0.3-0.4 ml of phosphate buffered saline (PBS, 1.06 mM KH2PO4, 0.15 M NaCl and 3.00 mM Na2HPO4, pH 7.4). Under 10× magnification, 1 μl of murine VEGF164 (12.6 ng/μl in PBS; R&D Systems, Minneapolis, Minn.) was delivered through a 20° beveled glass pipette, with a tip diameter of 13-20 μm. The contralateral eye received an equal volume of PBS alone or PBS containing 12.6 ng VEGF164, and a 20-fold molar excess of PEDF (232 ng), ACT (278 ng), HSP47 (278 ng), PEDFpep (28.1 ng), ACTpep (29.7 ng), or CHIMERApep (28.2 ng).
Evans Blue assay. We used a modification of the method described by Qaum et al.^44 Briefly, each mouse received intravitreal injections of proteins or peptides, and intrajugular injection of Evans blue^44. After 2 hours, 200 μl blood was taken and assayed for Evans blue. The retina was extruded and dissected free from any vitreous or adherent retinal pigment epithelium.
To assess the Evans blue-albumin concentration, the optical density of the retinal extract and plasma samples were measured at 620 nm and 740 nm. The retinal vasopermeability was calculated as the quantity of retinal Evans blue normalized to retinal dry weight, plasma Evans blue concentration, and circulation time by using the formula as described^32,44. Since all animals in this report had 1 eye injected with VEGF alone, the retinal permeability in the VEGF injected eyes was normalized to the VEGF injected eye in the set of animals where 1 eye received PBS. The VEGF-induced increase in permeability was taken to be 100%.

[3] = test system: VEGF-induced retinal vascular permeability; experiment: Fluorescein angiography after intravitreal co-injection with VEGF164; assay type: in vivo, mouse (C57BL/6J); conditions: mouse eye, co-injected intravitreally with 12.6 ng VEGF164 at 20-fold molar excess; 20 h after injection; qualitative
Description: as §1
Fluorescein angiograghy. Twenty hours after intravitreal injections, each pupil was dilated with one drop of 1% atropine sulfate. After intraperitoneal injection of 0.1 ml of 25% fluorescein, successive retina photographs were taken with a Kowa Genesis camera. The first photograph was taken within 20 seconds of the intraperitoneal fluorescein injection. Time elapsed between the alternating right and left eye retinal photographs averages 10 seconds. Fluorescein leakage manifests as indistinct vascular borders progressing to diffusely hazy fluorescence.

| Molecule | IC50 [1] | inhibition of VEGF-induced retinal vascular permeability (Evans blue-albumin) [2] | effect on VEGF-induced vascular permeability by Evans blue assay ([2]; qualitative statement) | effect on VEGF-induced fluorescein leakage / vascular permeability (fluorescein angiography) [3] |
| --- | --- | --- | --- | --- |
| B1 | 500 pM | 95.6±21.2% | obliterated | not observed; also recorded: inhibits |
| B2 |  | 19.4±22.3% |  | no effect |
| B3 |  | 3.4±18.2% |  | no effect |

Reference: US20080293626A1, “Pigment epithelium-derived factor as a therapeutic agent for vascular leakage” (The Johns Hopkins University, priority 2003, published 2008)
